The values below come from a protein production outcome set (Wang et al. 2014).

The data set can be described thus: label from the status in PepcDB records.
As to “MSSLVGLHYATVLPLAAYLLLAVVILLLAMGRDGAARKTFTASLLMIVLGWIPYIAAFLLLDYSLDEVAKNASDELSPYLRIGAAWSGGGGSLYLFSAFLSLAILLQMLLNKGLNRRAMAVFTLLVLTSMTSATLMGAFGTGPGERGGLGINPVLKNYWVVPHPTTTFLGYSFILVGSVALVLGYYRTGLPIQLLGLAFLTFGLVFGGMWSYETFGWGGYWAWDPVETSQLAVWLATVASIHMIGPLRSLNRGFAAYAASSVFLALYVTRSGVSPLHSFAAESFSAVLLLSASLVMLALSMLLFSEGVGETLEKWKSRLQDARWPPRIAEMNLSNILLTVGSVSIALSALIVYSSLLTPSVLKLVGLDTQPPSFEQGVRFYNRLLIPLALVSLYAVAGYYVSVRAGAKAAYSLFATLTVVLAIMGLATVKNTIIISPLSDTTTNLASATLLAAGSISGSVLLAMSLWMLYGMVKGKVAKSVHTLRIVLEKLVHATMIMILVSVAMSGSYAYNQGYSEEVLVPLGGEVSVMGVTISYEGYDYELHQGTVDLKNNLDPSSAILITAREALNMMDEDLSSTIREYRLASAESQSDRTLQTLLKASASNSEYRGVFTSTRGVADAAVVDVRTGENISNIQTAGETVLQLEDPTLEVTIDPKLDPETGRIEGGALSVVFYPERLVVYGIGSPVSLDPYSYLYVRFREPVEINLDDITVNMEEVVVYSTGGSSIEGVVSGQSVLFEGVAIRVVSGELSFGSMNIELPYQLDRGEFFYFMVYKGQAEVLDDILSSSISDLLESGIAGLAAGEDMDDFNVPRRAPAGVSLRLFMEVNGEPVEADLRFEANGEAIGIHGLVIDTIILRRGLTNVYITVQAPLVSGHFGEYHELMVYYLNEAMNTLRPEEYLALASVMAAGYNIASIVSSPSKERAALEVERATIDLYLLSEKLDEKRSSAAEGIVVSVKIVPGVPLLWLTGVLAGVLLLAMASIHFYLGFRQGRLIDT”, the protein production entry was “failed”.

For the sequence “MSSMVEVEHWNTLRLRIYIGENDKWEGRPLYKVIVEKLREMGIAGATVYRGIYGFGKKSRVHSSDVIRLSTDLPIIVEVVDRGHNIEKVVNVIKPMIKDGMITVEPTIVLWVGTQEEIKKFEEDAIAERQ”, the protein production entry is “not failed”.

Turning to “MSSNIAVVGDRDTVTGFRLGGVREGYVVETPDEAEETIRNLIRDGFSIIIVTEKIGDELREFIEETTSSSALPMIIEIPDKTGPSERETDPLRDLIKRVIGVEMVK”, the protein production entry is on record as “failed”.

In the case of “MSSNVPADMINLRLILVSGKTKEFLFSPNDSASDIAKHVYDNWPMDWEEEQVSSPNILRLIYQGRFLHGNVTLGALKLPFGKTTVMHLVARETLPEPNSQGQRNREKTGESNCCVIL”, the protein production entry is “not failed”.

For the sequence “MSSPGGGTRFALVAGTTETAGRAGISAAGADPELMSVTPAADAELVTYGTPVRTDVTPVSPSGCPTPALVTRAAREVLGFDVTVVDGGLAEKTGAPTVSVGARPGKDIAEQDPVSTAHGAFAAARQFGQSLPADELYLGETIPGGTTTALGVLRALGEDGMVSSSLPENPTAQKSEVVAEGLQASSLEPGDAANEPKRAVRRMGDPVLATLAGLTAGAVESDTAVTLAGGSQCVAVAALVRHGGYEGPLGLATTSYVADDESADVRASVDRLDLDLTVTDPGFDRSDHVAMERFVAGEAKEGVGMGGALALAD”, the protein production result is listed as “not failed”.

Turning to “MSSQLDECNRLLWEKCPVGLVLWRKNGALIDANSTYAAILGSTVPETLNFNYWQITPENYLASERTILEQLEQTGCHQAYEKEYLHQDGHLVPVKVSTVIIEKDGEKLMWSSVEDIS”, the protein production result is listed as “not failed”.

As for “MSSQVIPALPKTFSSSLDLWREKNDQLVRQAKQLTRDSRPSLRRQQSAQDTLEGLRELLLTLQGLPAAVPALPLELTVLCNCIILRASLVQAFTEDLTQDLQRGLERVLEAQHHLEPKSQQGLKELWHSVLSASSLPPELLPALHCLASLQAVFWMSTDHLEDLTLLLQTLNGSQTQSSEDLLLLLKSWSPPAEESPAPLILQDAESLRDVLLTAFACRQGFQELITGSLPHAQSNLHEAASGLCPPSVLVQVYTALGACLRKMGNPQRALLYLTEALKVGTTCALPLLEASRVYRQLGDRAAELESLELLVEALSATHSSETFKSLIEVELLLPQPDPASPLHCGTQSQAKHLLASRCLQTGRAEDAAEHYLDLLAMLLGGSETRFSPPTSSLGPCIPELCLEAAAALIQAGRALDALTVCEELLNRTSSLLPKMSSLWENARKRAKELPCCPVWVSATHLLQGQAWSQLKAQKEALSEFSQCLELLFRTLPEDKEQGSDCEQKCRSDVALKQLRVAALISRGLEWVASGQDTKALSDFLLSVQICPGNRDGSFYLLQTLKRLDRKNEASAFWREAHSQLPLEDAAGSLPLYLETCLSWIHPPNREAFLEEFGTSVLESCVL”, the protein production result is reported as “failed”.

In the case of “MSSRMARLGLSTYRLAGTVASPVVGLYLTYRTAKGKEDRARRLERFGYPSANRPQGPLVWFHAASVGETNAVIPLIREIRRRDIHVILTTGTITSARLAAERLGQEAIHQYVPLDLKPSVSRFLDYWQPDCAIIAESEIWPATVLELGRRRIPQILVNARMSDRSFARWRRRQSIAEALFENLALVIAQSDVDAERFRDLGAVPVITSGNLKVDTDAPPYDSAVFARYKKQIGDRKTWAAISTFDGEENAAGIVHRVLKERDRQLTIIVPRHPERSDEIEAALVKQGLKVARRTRDDVLSADVDIFLGDTIGEMGLYLRLTEIAFVGRSLFAEGGQNPLEPAMLGCAILSGGNVQNFREAYQKLARSGSARMVRDTEMLAKGVHYLLTNDEARRNMIEAGVATVHEMRGALSATVKGLEPYINPLTVKARLLPKAAAQV”, the protein production entry is reported as “failed”.

Consider “MSSRQQDTAPCNHRFSGSVPVFSAAPCPHPAASFISLPAGSPYDEKRFVPAPRRHVPMLNYIWSGLIIGSLLFALTVDTQELVENRFRNETALPVALDFPDGYAPDARRQPVEIRIDSATYRDVYGVNAAPDPVYAGTLVQTQEGRKVEFDPDADLPEPLATIQSFHATDDNPALRGALQGTSRTTAGVGRTETALQFEPVRFRKLNDIAQAALNFAETAASLALSLIGVLGLMLGLVKIGEEAGLIESLTGIVQPILSPLFPNVPDDHPALANISLNLLANVFGLGNAATPLGIKAMEDLQELNPSDEKASDDMVMLLALNTSSVQLVPPSLLVAIMGLQINQLFFSITLATLCSTVAGILGTLALHRLPYFRATAPHRTADAEDPDE”, for which the protein production entry is on record as “failed”.

Take “MSSRTRARGSKRAAGVHTVSIPRQRGRRRAQPFVIVFPESPSLTREALGFIGRALWKGRRALAPTALALLAFAVTGLLHVMAWWSSLILAPLAAGPLVWLAVMQVRRPGRGAVVLWRAGLALLATFTAAWAALAAGFGPLAGPLDLVWLLMWIAAQTAWLFVRRSH”: the protein production result was “failed”.

As for “MSSSNQDISIENTDLLTEISVAYYQDGATQEEISRKFAISRAKVGRMLKQARDEGIVEITVKYHPVFSAKIEQRLIERFGVKRALVALDQPNEEAQRLQVSGLVSNYLTSTLKNGMVVTVGQGRNVSSVAHHIGVITPRDCKFVCGIGGIHPRGGMYNADHICRQLAKKYGGTSETLYAPAYAENREQKMAFMQNATVKQTLDLARKADVALVGIGDMSENSYMVDLGWFTPDEVVQSRLKQGVVGDFAGYDFFDIHGNVANTVMSDRVIGLGIEEFRPIAEVIAIAAENSKPLALLGALRTGAIDVIATSVSNALTVLNLDEQMHGNAASES”, the protein production result is recorded as “failed”.

Take “MSSSSVEQQVVQHFSHTHPLTKVDEYGEFTCGGCKTYGFGKTYRCAPCDYVLHDHCATCPFTLISFMHPQHELRLFVNGSENMCNICHRLVEGVYYHCETCGFDVHPLCTQHHQHVSYVPHPAHLLELSQCGASNTCMVCRGAILSWRYKCGPCMLDVHVECVNSSAPAATEPQMDLNTSQDPQPYNDECGGIHNYEHTNKGQVSGPSKRRRVFRFFKDVTVEVVSSIITEML”: the protein production entry was “failed”.

Consider “MSSTILVLGATGTVGRHVVDGLLAKGEAVKAASRAGKPVAAAEGVAFDYARPETFGPALEGVDRAYVLLASGYVDSKGLLLPVIEAAATRKVKVVLQSVIGVDADDSIPYRQVEIALEKSDTPYVILRPNWFSDNFHTFWKPGIDHGQIALPAAEGKSSFIDARDIAASGVAVLTSSSFDGKAFNLTGPEALSYAEAAAILSEAIGKPVTYNAVSDEAFIEMLTGAGVPAGYASFLASIFYPVRQNWTAVMTGDVETLTGKAPRSLKTYAADYAAALKA”, for which the protein production entry is “failed”.

Consider “MSSTSPNLQKAIDLASKAAQEDKAGNYEEALQLYQHAVQYFLHVVKYEAQGDKAKQSIRAKCTEYLDRAEKLKEYLKNKEKKAQKPVKEGQPSPADEKGNDSDG”, for which the protein production entry is listed as “not failed”.

With “MSSVPSAGQVRRRRVFYIPGYDPIHPRRYRELYRKESAEQARISGYSVTLKPKTTKGPYGWHVRSEQDGAEVAADVEVLVWSDIVRGSMSNTIPATYAQLARTAWTYIASGVLWRLMRLRKGPVIAALYPVGMLLAQLFAALFLVWLGWRLGGLTGWPLAALAGMGVGAGAGVYLLRWFRSKDGTFFAYYLMHDYAYSARWRGANPPELEARIGDFAERIAGALASDADEVLVVGHSSGAHVGVSVLADLIRAGRVPADGPALGFLTLGQVVPMVSFLPEAQRLRADLHYLCTRDELAWVDVSAPGDGCAFALCDPVSVSGVAPATGKRWPLVLSAAFTKTLSPARWAELRWRFFRLHFQYLCAFDQVGDYDYFRITAGPQTLAARYRDRAPSKSRIERAVSKYTDMGAS”, the protein production entry is “failed”.

Turning to “MSSWRPAVRTDTGWPLIRRTARCHMLRNPKNAGWCRSSAATASWRSCTVPRASAWPTSRTAVPRPMVGYQCGQVFRACCVKSQETGDLDVGGLQETDKIIEVEEEQEDPYLNDRCRGGGPCKQQCRDTGDEVVCSCFVGYQLLSDGVSCEDVNECITGSHSCRLGESCINTVGSFRCQRDSSCGTGYELTEDNSCKDIDECESGIHNCLPDFICQNTLGSFRCRPKLQCKSGFIQDALGNCIDINECLSISAPCPIGHTCINTEGSYTCQKNVPNCGRGYHLNEEGTRCVDVDECAPPAEPCGKGHRCVNSPGSFRCECKTGYYFDGISRMCVDVNECQRYPGRLCGHKCENTLGSYLCSCSVGFRLSVDGRSCEDINECSSSPCSQECANVYGSYQCYCRRGYQLSDVDGVTCEDIDECALPTGGHICSYRCINIPGSFQCSCPSSGYRLAPNGRNCQDIDECVTGIHNCSINETCFNIQGGFRCLAFECPENYRRSAATLQQEKTDTVRCIKSCRPNDVTCVFDPVHTISHTVISLPTFREFTRPEEIIFLRAITPPHPASQANIIFDITEGNLRDSFDIIKRYMDGMTVGVVRQVRPIVGPFHAVLKLEMNYVVGGVVSHRNVVNVHIFVSEYWF”, the protein production entry is given as “failed”.

Turning to “MSTDFDRIYLNQSKFSGRFRIADSGLGWKISTSGGSAANQARKPFLLPATELSTVQWSRGCRGYDLKINTKNQGVIQLDGFSQDDYNLIKNDFHRRFNIQVEQREHSLRGWNWGKTDLARNEMVFALNGKPTFEIPYARINNTNLTSKNEVGIEFNIQDEEYQPAGDE”, the protein production entry is “not failed”.

For the sequence “MSTDRETVRSYDAVAAEYAAEAAVMPEWVATEIDVFVTELSGSGRVLEIGSGGGRDALELEKRGMSVRRTDISKGFVELLRESGFEADLLDPLTDDLADPQRPSMPYDGIWACACLIHVARGDFGTVLGRLAEATRSGGRLHVSVREGDGEDLSTHGSAAAPRRYVETYWREPALRSALTDAGWIVNDVRRYVGRPHDRWLSVRASRA”, the protein production result is “failed”.
